Laboratory results: patent publication US20180237511A1 (Sanofi, published 2018)
Changes are numbered by the printed parent chain.

T1: human beta-dystroglycan extracellular domain (soluble) (human, UniProt Q14118 654-749)
T1 construct: extracellular domain; The expression construct of soluble human beta-DG is not described (only the mouse one); also called hBeta-DG; hbeta-DG
T1 sequence (looked up): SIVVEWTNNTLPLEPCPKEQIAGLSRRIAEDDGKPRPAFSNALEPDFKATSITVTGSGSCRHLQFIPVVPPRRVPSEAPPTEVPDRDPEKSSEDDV

T2: human laminin G-like 4 and 5 domains of laminin-2 (hLG-4/5), soluble (human, UniProt P24043 2729-3122, biotinylated in the ELISA of Example 6)
T2 construct: range 2729-3122; also called human LG-4/5; hLG4/LG5; not shown: Avi tag and HPC4 tag left after TEV cleavage of the N-terminal mIgG2a fusion partner
T2 sequence (looked up): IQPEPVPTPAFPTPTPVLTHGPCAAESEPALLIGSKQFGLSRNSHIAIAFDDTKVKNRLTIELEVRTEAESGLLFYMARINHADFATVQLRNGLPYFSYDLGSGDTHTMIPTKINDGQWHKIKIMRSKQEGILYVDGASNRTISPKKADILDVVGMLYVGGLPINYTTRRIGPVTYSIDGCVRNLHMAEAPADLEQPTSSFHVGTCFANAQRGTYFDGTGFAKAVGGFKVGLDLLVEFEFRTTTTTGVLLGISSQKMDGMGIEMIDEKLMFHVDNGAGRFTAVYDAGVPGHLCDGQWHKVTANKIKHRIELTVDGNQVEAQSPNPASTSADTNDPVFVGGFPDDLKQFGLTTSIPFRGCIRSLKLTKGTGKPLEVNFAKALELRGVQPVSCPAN

T3: human laminin G-like 5 domain of laminin-2 (hLG-5) (human, UniProt P24043 2936-3122, soluble biotinylated protein (Avi tag))
T3 construct: The construct used for the crystal structure with C21 Fab is not described; the same entry is used; also called human LG-5; human LG5; not shown: N-terminal Avi and HPC4 tags
T3 sequence: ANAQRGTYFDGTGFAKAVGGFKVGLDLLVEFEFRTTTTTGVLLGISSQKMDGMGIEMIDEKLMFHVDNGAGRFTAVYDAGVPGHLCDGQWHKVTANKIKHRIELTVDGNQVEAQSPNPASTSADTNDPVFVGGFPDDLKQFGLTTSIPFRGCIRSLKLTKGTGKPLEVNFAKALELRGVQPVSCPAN

B1: triAb 3423 (bispecific antibody)
light 1: EIVLTQSPDFLSVTPKEKVTLSCRASQSISNYLHWYQQKSDQSPKLLIKYASQSISGIPSRFSGSGSGTDFTLSINSVEAEDAATYFCQQSKSWPRTFGGGTKLEIKDKTHTEIVLTQSPDFLSVTPKEKVTLTCRASQSISNNLHWYQQKSDQSPKLLIKYASQSISGIPSRFSGSGSGTDFTLTINSVEAEDAATYFCQQSKSWPRTFGGGTKLEIKDKTHTRTVAAPSVFIFPPSDEQLKSGTASVVCLLNNFYPREAKVQWKVDNALQSGNSQESVTEQDSKDSTYSLSSTLTLSKADYEKHKVYACEVTHQGLSSPVTKSFNRGEC
heavy 1: EVQLVESGGGLVKPGGSLRLSCAASGFTFSSYTMSWVRQAPGKGLEWVASISSSGSNTYYPDSVKGRFTISRDNAKNNLYLQMNSLRAEDTALYYCARFDYGSSLDSWGQGTLLTVSSDKTHTEVQLVESGGGLVKPGGSLRLSCAASGFTFSSYTMSWVRQAPGKGLEWVASISSSGSNTYYPDSVKGRFTISRDNAKNNLYLQMNSLRAEDTALYYCARFDYGSSLDSWGQGTLLTVSSDKTHTASTKGPSVFPLAPSSKSTSGGTAALGCLVKDYFPEPVTVSWNSGALTSGVHTFPAVLQSSGLYSLSSVVTVPSSSLGTQTYICNVNHKPSNTKVDKKVEPKSCDKTHTCPPCPAPELLGGPSVFLFPPKPKDTLYITREPEVTCVVVDVSHEDPEVKFNWYVDGVEVHNAKTKPREEQYNNASRVVSVLTVLHQDWLNGKEYKCKVSNKALPAPIEKTISKAKGQPREPQVYTLPPCRDELTKNQVSLWCLVKGFYPSDIAVEWESNGQPENNYKTTPPVLDSDGSFFLYSKLTVDKSRWQQGNVFSCSVMHEALHNHYTQKSLSLSPG
heavy 2: QVQLVQSGAEVVKPGSSVKVSCEASGFTFTDSVITWVRQRPGQGLEWIGEIYPGSGNFYYNEKFQGRVTITADKSTSTAYMELSSLRSEDTAVYFCAMRRSSWGQGTLVTVSSASTKGPSVFPLAPSSKSTSGGTAALGCLVKDYFPEPVTVSWNSGALTSGVHTFPAVLQSSGLYSLSSVVTVPSSSLGTQTYICNVNHKPSNTKVDKKVEPKSCDKTHTCPPCPAPELLGGPSVFLFPPKPKDTLYITREPEVTCVVVDVSHEDPEVKFNWYVDGVEVHNAKTKPREEQYNNASRVVSVLTVLHQDWLNGKEYKCKVSNKALPAPIEKTISKAKGQPREPQVCTLPPSRDELTKNQVSLSCAVKGFYPSDIAVEWESNGQPENNYKTTPPVLDSDGSFFLVSKLTVDKSRWQQGNVFSCSVMHEALHNRFTQKSLSLSPG
light 2: DVVMTQTPLSLSVTPGQPASISCKSSQTIVHSNSKTYLEWYLQKPGQSPQLLIYKVSSRFSGVPDRFSGSGSGTDFTLKISRVEAEDVGVYYCFQGSHVPLTFGQGTKLEIKRTVAAPSVFIFPPSDEQLKSGTASVVCLLNNFYPREAKVQWKVDNALQSGNSQESVTEQDSKDSTYSLSSTLTLSKADYEKHKVYACEVTHQGLSSPVTKSFNRGEC
notes: Trivalent: CODV arm VH1/VL1 C3_Hu10, VH2/VL2 C21_Hu11
B2: triAb 3437 (bispecific antibody)
light 1: B1 light 1 with S22T, S30G, Y32N, S74T, T134S, N144Y, T186S
heavy 1: B1 heavy 1
heavy 2: B1 heavy 2
light 2: B1 light 2
notes: Trivalent: CODV arm VH1/VL1 C21_Hu11, VH2/VL2 C3_Hu11
B3: triAb 3439 (bispecific antibody)
light 1: B1 light 1 with S22T, Y32N, S74T, K128G, N144Y, I170V, N188S, A195F
heavy 1: B1 heavy 1 with K13Q, S50T, S56D, A75S, N78T, N84S, L113T
heavy 2: B1 heavy 2
light 2: B1 light 2
notes: Trivalent: CODV arm VH1/VL1 C21_Hu21, VH2/VL2 C3_Hu10
B4: humanized anti-laminin-2 antibody C3_Hu10 (antibody, V domains shown)
VH: EVQLVESGGGLVKPGGSLRLSCAASGFTFSSYTMSWVRQAPGKGLEWVASISSSGSNTYYPDSVKGRFTISRDNAKNNLYLQMNSLRAEDTALYYCARFDYGSSLDSWGQGTLLTVSS
VL: EIVLTQSPDFLSVTPKEKVTLTCRASQSISNNLHWYQQKSDQSPKLLIKYASQSISGIPSRFSGSGSGTDFTLTINSVEAEDAATYFCQQSKSWPRTFGGGTKLEIK
notes: Called monovalent anti-LG4/5 antibody
B5: humanized anti-laminin-2 antibody C3_Hu11 (antibody, V domains shown)
VH: B4 VH
VL: B4 VL with S30G
notes: as for B4
B6: humanized anti-laminin-2 antibody C21_Hu11 (antibody, V domains shown)
VH: B4 VH
VL: B4 VL with T22S, N32Y, T74S
notes: as for B4
B7: humanized anti-laminin-2 antibody C21_Hu21 (antibody, V domains shown)
VH: B4 VH with K13Q, S50T, S56D, A75S, N78T, N84S, L113T
VL: B4 VL with K16G, N32Y, I58V, N76S, A83F
notes: as for B4
B8: anti-laminin-2 (anti-LG-5) monoclonal antibody clone AN01 (antibody, V domains shown)
VH: EVQLQQSGPELVKPGASVKMSCKASGYTFTSYNIHWVKQKPGQGLEWIGYINPYNDGTKYSEKFKGKATLTSDRSSSTAYMEVSSLTSEDSAVYYCAIYGNSYWGQGSTLTVSS
VL: DIVMTQAAPSIPVTPGESVSISCRSSKSLLHSNGNTYLYWFLQRPGQSPQRLIYYMSNLDSGVPDRFSGRGSGTDFTLRISRVEAEDVGVYYCMQGLEYPYTFGGGTKLEIK
notes: tested as immobilized mAb
B9: triAb 3429 (bispecific antibody)
light 1: B1 light 1 with K16G, S22T, I58V, S74T, N76S, A83F, S142G
heavy 1: B1 heavy 1 with K136Q, S173T, S179D, A198S, N201T, N207S, L236T
heavy 2: B1 heavy 2
light 2: B1 light 2
notes: Trivalent: CODV arm VH1/VL1 C3_Hu11, VH2/VL2 C21_Hu21
B10: humanized anti-beta-DG antibody AS30SS_Hu6 (antibody, V domains shown)
VH: QVQLVQSGAEVVKPGSSVKVSCEASGFTFTDSVITWVRQRPGQGLEWIGEIYPGSGNFYYNEKFQGRVTITADKSTSTAYMELSSLRSEDTAVYFCAMRRSSWGQGTLVTVSS
VL: DVVMTQTPLSLSVTPGQPASISCKSSQTIVHSNSKTYLEWYLQKPGQSPQLLIYKVSSRFSGVPDRFSGSGSGTDFTLKISRVEAEDVGVYYCFQGSHVPLTFGQGTKLEIK
notes: also called AS30_Hu6; AS30 Hu6

Columns and labels:
[1] = target: T1, human beta-dystroglycan extracellular …; assay: SPR, antibody on Protein G chip, beta-DG in flow, 1:1 model (table title says laminin-2; paragraph 445 says human beta-DG)
Procedure: (§1) Data was evaluated with a 1:1 binding model using the BIAevaluation software.
(§2) SPR was used as described above to analyze the kinetics of triAb binding to laminin-2 (Table N) or beta-DG (Table O).

[2] = target: T1, human beta-dystroglycan extracellular …; assay: sequential SPR (Biacore T100): antibody captured on a Protein G chip, 200 nM human LG4/5 for 60 s, then 200 nM human beta-DG for 60 s
Procedure: For sequential dual binding of antigens to trivalent antibodies, a Series S Sensor Protein G chip (GE Healthcare, 29179315) was used with a T100 Biacore. This chip was used to immobilize trivalent or parental antibody to the surface (60 seconds with 5 ug/mL of antibody). After capture, 200 nM of LG4/5 was flowed over the chip for 60 seconds followed by 200 nM of beta-DG for 60 seconds. Binding to the trivalent antibody was observed by the change of mass detected on the chip in relative units (RU).
Additionally, surface plasmon resonance was performed to show sequential binding of the human laminin-2 and beta-DG antigens (FIG. 1C).

[3] = target: T2, human laminin G-like 4 and 5 domains of …; assay: SPR, antibody on Protein G chip, LG4/5 in flow, 1:1 model (table title says beta-DG; paragraph 445 says human laminin-2)
Procedure: as §1, §2

[4] = target: T3, human laminin G-like 5 domain of …; assay: SPR (Biacore) kinetics; mAb immobilized, hLG-5 in flow

| Binder | Kd [1] | koff [1] | kon [1] | binding result [2] | other results |
| --- | --- | --- | --- | --- | --- |
| B1 | 1.6 nM | 0.00433 s⁻¹ | 2.7e+06 M⁻¹ s⁻¹ |  |  |
| B2 | 1.87 nM | 0.0045 s⁻¹ | 2.41e+06 M⁻¹ s⁻¹ |  |  |
| B3 | 1.3 nM | 0.004 s⁻¹ | 3.07e+06 M⁻¹ s⁻¹ |  |  |
| B4 |  |  |  | no binding (tested: 200 nM) |  |
| B5 |  |  |  | no binding (tested: 200 nM) | Kd [3]: 9.83 nM; koff [3]: 0.00117 s⁻¹; kon [3]: 119000 M⁻¹ s⁻¹ |
| B6 |  |  |  | no binding (tested: 200 nM) |  |
| B7 |  |  |  | no binding (tested: 200 nM) | Kd [3]: 8.99 nM; koff [3]: 0.00144 s⁻¹; kon [3]: 160000 M⁻¹ s⁻¹ |
| B8 |  |  |  |  | Kd [4]: 9.24 nM; koff [4]: 0.000915 s⁻¹; kon [4]: 99000 M⁻¹ s⁻¹ |
| B9 | 1.9 nM | 0.00404 s⁻¹ | 2.13e+06 M⁻¹ s⁻¹ |  |  |
| B10 | 0.796 nM | 0.00202 s⁻¹ | 2.54e+06 M⁻¹ s⁻¹ |  |  |
